Test results published in PMC5388391.

Legend:
[1] = target: T1, KLF1 zinc finger domain (WT) (mouse (murine), UniProt P46099 243-358); assay: fluorescence polarization
[2] = target: T2, Nan-KLF1 zinc finger domain (mouse (murine), Nan mutant, UniProt P46099 243-358, E321D); assay: fluorescence polarization
[3] = target: T2, Nan-KLF1 zinc finger domain; assay: EMSA
[4] = target: T1, KLF1 zinc finger domain (WT); assay: EMSA

T1 sequence (P46099 243-358): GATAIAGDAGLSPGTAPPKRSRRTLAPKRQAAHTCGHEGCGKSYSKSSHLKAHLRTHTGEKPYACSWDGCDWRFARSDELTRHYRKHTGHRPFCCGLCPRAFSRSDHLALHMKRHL
T2 sequence (P46099 243-358 E321D): as the sequence (P46099 243-358) above, with E79D counted along it

B1: Alas2_fp (CG) (dsDNA)
DNA 1: TTCTCTCCCACGCCCTGGGCTC
DNA 2: GAGCCCAGGGCGTGGGAGAGA
modifications: 5' fluorescein-dT (/5FluorT/) preceding S51, written as T
- Kd [1]: 150 nM
- Kd [2]: 130 nM

B2: Alas2 variant 2 (CT), EMSA (dsDNA)
DNA 1: TCTCTCCCAAGCCCTGGGCTC
DNA 2: GAGCCCAGGGCTTGGGAGAGA
- binding result [3]: binds

B3: Alas2 variant 3 (AG), EMSA (dsDNA)
DNA 1: TCTCTCCCACTCCCTGGGCTC
DNA 2: GAGCCCAGGGAGTGGGAGAGA
- binding result [3]: binds

B4: beta-globin (Hbb promoter, Category II, TG) (dsDNA)
DNA 1: TAGAGCCACACCCTGGTAAG
DNA 2: CTTACCAGGGTGTGGCTCTA
- binding result [4]: binds

B5: Alas2 (Category I, CG), EMSA (dsDNA)
DNA 1: TCTCTCCCACGCCCTGGGCTC
DNA 2: GAGCCCAGGGCGTGGGAGAGA
- binding result [4]: binds
- binding result [3]: binds

B6: Alas2 variant 1 (CA), EMSA (dsDNA)
DNA 1: TCTCTCCCATGCCCTGGGCTC
DNA 2: GAGCCCAGGGCATGGGAGAGA
- binding result [3]: binds
